Data from patent US20230190950A1, “COMPOSITIONS AND METHODS FOR THE TREATMENT OF BACTERIAL INFECTIONS” (Cidara Therapeutics, Inc., priority 2017, published 2023).

T1: recombinant mouse FcRn (Mus musculus, UniProt Q61559)
T1 construct: purchased R&D 6775-FC-050
T1 sequence (Q61559 22-297 limits assumed): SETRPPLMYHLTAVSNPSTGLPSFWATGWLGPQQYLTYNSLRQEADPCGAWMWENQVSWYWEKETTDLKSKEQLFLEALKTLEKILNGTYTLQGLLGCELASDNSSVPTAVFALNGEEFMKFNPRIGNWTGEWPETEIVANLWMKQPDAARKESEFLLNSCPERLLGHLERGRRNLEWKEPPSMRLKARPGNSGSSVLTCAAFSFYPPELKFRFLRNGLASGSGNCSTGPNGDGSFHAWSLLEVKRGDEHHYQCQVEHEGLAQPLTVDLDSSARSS
T1 sequence (P01887 21-119 partner): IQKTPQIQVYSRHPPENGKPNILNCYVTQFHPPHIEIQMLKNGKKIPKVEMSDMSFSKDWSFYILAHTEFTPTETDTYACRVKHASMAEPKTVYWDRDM

B1: Conjugate 15 (conjugate)
chain: PRGPTIKPCPPCKCPAPNLLGGPSVFIFPPKIKDVLMISLSPIVTCVVVDVSEDDPDVQISWFVNNVEVHTAQTQTHREDYNSTLRVVSALPIQHQDWMSGKEFKCKVNNKDLPAPIERTISKPKGSVRAPQVYVLPPPEEEMTKKQVTLTCMVTDFMPEDIYVEWTNNGKTELNYKNTEPVLDSDGSYFMYSKLRVEKKNWVERNSYSCSVVHEGLHNHHTTKSFSRTPGKHHHHHH
modifications: cyclised or stapled
B2: Conjugate 4 (conjugate)
chain: B1 chain
modifications: cyclised or stapled
B3: Conjugate 26: "Conjugate of m-IgG2a(His)6 Fc-3(Int-13)"; mlgG2a(His)6 Fc (SEQ ID NO: 6), reduced hinge disulfides; DAR=2/Fc dimer (conjugate)
chain: B1 chain
modifications: conjugated to Int-13 at hinge cysteines
notes: "Conjugate of m-IgG2a(His)6 Fc-3(Int-13)"; DAR=2/Fc dimer
B4: control molecule: "unconjugated control Fc molecule (m-IgG2a type; SEQ ID NO: 2)" (protein, listed as Mus musculus)
chain: PRGPTIKPCPPCKCPAPNLLGGPSVFIFPPKIKDVLMISLSPIVTCVVVDVSEDDPDVQISWFVNNVEVHTAQTQTHREDYNSTLRVVSALPIQHQDWMSGKEFKCKVNNKDLPAPIERTISKPKGSVRAPQVYVLPPPEEEMTKKQVTLTCMVTDFMPEDIYVEWTNNGKTELNYKNTEPVLDSDGSYFMYSKLRVEKKNWVERNSYSCSVVHEGLHNHHTTKSFSRTPGK

Assays:
[1] = tested on: Escherichia coli ATCC BAA-2469; assay: MIC assay (broth microdilution), Ec 2469; format: cell-based; settings: assay media RPMI A
Method: (§1) Bacterial strains were stored as glycerol stocks at −80° C. prior to culturing on cation-adjusted Mueller-Hinton agar (MHA; BD cat. no. 211438) at 37° C. Antibacterial activity was assessed against a panel consisting of Escherichia coli, Acinetobacter baumannii, Pseudomonas aeruginosa, and Klebsiella pneumoniae strains (see Table 2).
(§2) Briefly, stock solutions of all antibacterial agents were prepared fresh in appropriate solvents (i.e. PBS, pH 7.4, DMSO, DI, etc.). Stock concentrations were made at 50× the highest final assay concentration and serially diluted 2-fold, 8 or 12 times in a 96-well PCR plate (VWR cat. no. 83007-374). Bacterial cell suspensions generated from MHA plate cultures were prepared in 0.85% saline and adjusted to ˜0.1 OD600 nm. […] Dorschner R A et al., The mammalian ionic environment dictates microbial susceptibility to antimicrobial defense peptides. FASEB J. 20(1):35-42 (2017). Ninety-eight microliters of each cell suspension in MHB were added to test wells in a 96-well assay plate (Costar cat. no. 3370). A Beckman Multimek 96 liquid handling robot was used to dispense 2 μL of each 50× stock compound into the plate containing 98 μL of each strain in MHB (2% final solvent concentration). E. coli strains BW25113 and ATCC 25922 were run in the presence and absence of 50% heat-inactivated fetal bovine serum (FBS; Sigma, cat. no. F4135-100 mL). Plates were mixed by shaking then incubated at 37° C. overnight (16-20 h).

Escherichia coli BW25113 = assay: MIC assay (broth microdilution), Ec BW; format: cell-based; settings: assay media RPMI A; for MIC, Ec BW + FBS: 50% heat-inactivated FBS
Method: as §1, §2

[2] = tested on: Pseudomonas aeruginosa PAO1; assay: MIC assay (broth microdilution), Pa PAO1; format: cell-based; settings: assay media RPMI A
Method: as §1
(§3) Briefly, stock solutions of all antibacterial agents were prepared fresh in appropriate solvents (i.e. PBS, pH 7.4, DMSO, DI, etc.). Stock concentrations were made at 50× the highest final assay concentration and serially diluted 2-fold, 8 or 12 times in a 96-well PCR plate (VWR cat. no. 83007-374). Bacterial cell suspensions generated from MHA plate cultures were prepared in 0.85% saline and adjusted to ˜0.1 OD600 nm. Next, cell suspensions were diluted 1:200 in RPMI containing 5% Luria Broth (LB) to improve bacterial growth (BD Difco, cat. no. 244620) to a concentration of ˜5×10^5 CFU (colony-forming units)/mL. […] Later, conjugates 16 and 17, and 20-25 were evaluated in RPMI 1640 medium (+) L-glutamine, (+) sodium bicarbonate, pH 7.4 (“RPMI B”; Gibco, cat. no. 11875-085) as has been described as a more physiologically-relevant media for susceptibility testing of antibacterial compounds. Dorschner R A et al., The mammalian ionic environment dictates microbial susceptibility to antimicrobial defense peptides. FASEB J. 20(1):35-42 (2017). Ninety-eight microliters of each cell suspension in MHB were added to test wells in a 96-well assay plate (Costar cat. no. 3370). A Beckman Multimek 96 liquid handling robot was used to dispense 2 μL of each 50× stock compound into the plate containing 98 μL of each strain in MHB (2% final solvent concentration). E. coli strains BW25113 and ATCC 25922 were run in the presence and absence of 50% heat-inactivated fetal bovine serum (FBS; Sigma, cat. no. F4135-100 mL). Plates were mixed by shaking then incubated at 37° C. overnight (16-20 h).

[3] = tested on: Acinetobacter baumannii ABS075-UW; assay: MIC assay (broth microdilution), Ab ABS075; format: cell-based; settings: assay media RPMI A
Method: as §1, §2

[4] = tested on: Acinetobacter baumannii ATCC 19606; assay: MIC assay (broth microdilution), Ab 19606; format: cell-based; settings: assay media RPMI A
Method: as §1, §2

[5] = tested on: Escherichia coli BW25113 + pUC18-mcr-1; assay: MIC assay (broth microdilution), Ec BW (mcr-1); format: cell-based; settings: assay media RPMI A
Text: An mcr-1 expression plasmid was constructed (GenScript; Piscataway, N.J.) using the pUC18 high copy number plasmid (Yanisch-Perron, et al., 1985). A 1649-bp fragment was synthesized containing, in order from 5′ to 3′: EcoR1 restriction site (5′-GAATTC-3′), a ribosomal binding site (5′-AGGAGG-3′), a 5-bp native start codon upstream sequence (5′-TTCTC-3′) from the mcr-1-bearing plasmid pHNSHP45 (Liu, Y Y, et al., 2015; GenBank Accession #KP347127), the 1626-bp mcr-1 open reading frame with stop codon (“orf00073” of GenBank Accession #KP347127), and finally an Xba1 restriction site sequence (5′-TCTAGA-3′). […] The pUC18-mcr-1 plasmid was transformed into chemically-competent E. coli BW25113 (Coli Genetic Stock Center #7636) as described previously (Chung, et al., PNAS. 1989), recovered for 1 h shaking at 37° C. in Super Optimal broth with Catabolite repression (SOC) media and then aliquots were plated on Luria-Bertani (LB) media containing 100 μg/mL of carbenicillin. Putative transformant colonies were then verified in MIC assays.
as §1
Briefly, stock solutions of all antibacterial agents were prepared fresh in appropriate solvents (i.e. PBS, pH 7.4, DMSO, DI, etc.). Stock concentrations were made at 50× the highest final assay concentration and serially diluted 2-fold, 8 or 12 times in a 96-well PCR plate (VWR cat. no. 83007-374). Bacterial cell suspensions generated from MHA plate cultures were prepared in 0.85% saline and adjusted to ˜0.1 OD600 nm. […] Later, conjugates 16 and 17, and 20-25 were evaluated in RPMI 1640 medium (+) L-glutamine, (+) sodium bicarbonate, pH 7.4 (“RPMI B”; Gibco, cat. no. 11875-085) as has been described as a more physiologically-relevant media for susceptibility testing of antibacterial compounds. […]

[6] = tested on: Escherichia coli BW25113 4X-12 (COL-R); assay: MIC assay (broth microdilution), Ec BW 4X-12 (COL-R); format: cell-based; settings: assay media RPMI A
Method: as §1, §3

[7] = tested on: Escherichia coli ATCC 25922; assay: MIC assay (broth microdilution), Ec 25922; format: cell-based; settings: assay media RPMI A; for MIC, Ec 25922 + FBS: 50% heat-inactivated FBS
Method: as §1, §2

recombinant mouse FcRn = biological target: T1, recombinant mouse FcRn; assay: Binding of conjugates to FcRn (ELISA), mouse; settings: pH 6.25; 20 μg/mL starting concentration, 2-fold diluted
Method: 96-well ELISA plates (Fisher, Cat. No. 12-565-136) were coated with 0.25 μg/well of recombinant mouse FcRn (R&D, Cat. No. 6775-FC-050) or recombinant human FcRn (R&D, Cat. No. 8639-FC-050) in carbonate-bicarbonate buffer (Sigma, Cat. No. C34041) at pH 6.25 overnight at 37° C. A pH of 6.25 was maintained during the complete experiment. Blocking was carried out with 5% skim milk in PBS with 0.05% Tween 20. Purified conjugates were added at 20 μg/mL starting concentration and serially 2-fold diluted in blocking buffer. For detection, HRP-labeled secondary anti-mouse IgG-HRP (GE Healthcare, Cat. No. NA931V) or anti-human IgG-HRP (GE Healthcare, Cat. No. NA933V) was used to detect the bound conjugates. Absorbance was measured at 450 nm with a 96-well microplate reader and data were analyzed using GraphPad Prism software, FIGS. 33A-33F.

[8] = tested on: Acinetobacter baumannii ATCC 179778; assay: MIC assay (broth microdilution), Ab 17978; format: cell-based; settings: assay media RPMI A
Method: as §1
(§4) Briefly, stock solutions of all antibacterial agents were prepared fresh in appropriate solvents (i.e. PBS, pH 7.4, DMSO, DI, etc.). Stock concentrations were made at 50× the highest final assay concentration and serially diluted 2-fold, 8 or 12 times in a 96-well PCR plate (VWR cat. no. 83007-374). Bacterial cell suspensions generated from MHA plate cultures were prepared in 0.85% saline and adjusted to ˜0.1 OD600 nm. Next, cell suspensions were diluted 1:200 in RPMI containing 5% Luria Broth (LB) to improve bacterial growth (BD Difco, cat. no. 244620) to a concentration of ˜5×10^5 CFU (colony-forming units)/mL. […] Later, conjugates 16 and 17, and 20-25 were evaluated in RPMI 1640 medium (+) L-glutamine, (+) sodium bicarbonate, pH 7.4 (“RPMI B”; Gibco, cat. no. 11875-085) as has been described as a more physiologically-relevant media for susceptibility testing of antibacterial compounds. Dorschner R A et al., The mammalian ionic environment dictates microbial susceptibility to antimicrobial defense peptides. FASEB J. 20(1):35-42 (2017). […]

[9] = tested on: Pseudomonas aeruginosa ATCC 27853; assay: MIC assay (broth microdilution), Pa 27853; format: cell-based; settings: assay media RPMI A
Method: as §1, §4

E. coli ATCC 25922 = assay: Complement-dependent cytotoxicity (CDC) assay; format: cell-based, Escherichia coli; settings: 0.2 uM; 10% normal human serum; 90 minutes
Method: Gram-negative bacteria were cultured overnight in Luria-Bertani (LB) (BD Difco™ Cat. 244620) at 37° C. under constant agitation. The next day, bacteria were grown to log phase until the OD600 reached 0.4 (˜10^8 CFU/mL). Bacteria were washed in DPBS pH 7.4 (Gibco 10010-023) resuspended in RPMI 1640 (Gibco 11-835-055) at 10^6 CFU/mL and […] was added to the wells of a 96-well, TC-treated, polystyrene plate (Fisher 08-772-2C).
The plates were incubated at 37° C. for 90 minutes. At the end of the assay, wells were serially diluted in sterile water and remaining bacteria were cultured overnight at 37° C. on agar plates. Colonies were counted the next day and CFU/mL and % survival normalized to RPMI control was determined using the following equations: CFU/mL=(colonies*dilution factor)/volume and […] normalized to RPMI=([CFU/mL of test condition]/[CFU/mL of molecule in RPMI])*100.

| Molecule | MIC, Ec 2469 [1] [µg/mL] | MIC, Ec BW (Escherichia coli BW25113) [µg/mL] | MIC, Ec BW + FBS (Escherichia coli BW25113) [µg/mL] | MIC Pa PAO1 [2] [µg/mL] | MIC Ab AB5075 [3] [µg/mL] | MIC Ab 19606 [4] [µg/mL] | MIC, Ec BW (mcr-1) [5] [µg/mL] | MIC, Ec BW 4X-12 (COL-R) [6] [µg/mL] | MIC, Ec 25922 [7] [µg/mL] | MIC, Ec 25922 + FBS [7] [µg/mL] | binding to mouse FcRn (ELISA) (recombinant mouse FcRn) | MIC Ab 17978 [8] [µg/mL] | MIC Pa 27853 [9] [µg/mL] | antibacterial activity in the presence of 10% complement active NHS (E. coli ATCC 25922) |
| --- | --- | --- | --- | --- | --- | --- | --- | --- | --- | --- | --- | --- | --- | --- |
| B1 | >128 | >128 | >128 | 16 | >128 | >128 | >128 | >128 | >128 | >128 | does not interfere with FcRn interaction | – | – | – |
| B2 | >128 | 32 | 32 | 16 | 32 | 32 | >128 | >128 | >128 | 64 | does not interfere with FcRn interaction | – | – | – |
| B3 | 32 | 16 | 32 | 64 | 32 | 128 | >128 | >128 | >128 | 128 | – | 64 | 16 | – |
| B4 | – | – | – | – | – | – | – | – | – | – | – | – | – | no antibacterial activity |
